In patent US20050260177A1:

Tests used:
[1] = target: Ra12-C888P fusion protein (human C888P fused to Mycobacterium tuberculosis Ra12); assay: ELISA, RC888P on plate, serum 1:1000, well 1
[2] = target: Ra12-C888P fusion protein (human C888P fused to Mycobacterium tuberculosis Ra12); assay: ELISA, RC888P on plate, serum 1:1000, well 2
[3] = target: Ra12-C888P fusion protein (human C888P fused to Mycobacterium tuberculosis Ra12); assay: ELISA, RC888P on plate, serum 1:2000, well 1
[4] = target: Ra12-C888P fusion protein (human C888P fused to Mycobacterium tuberculosis Ra12); assay: ELISA, RC888P on plate, serum 1:2000, well 2
[5] = target: Ra12-C888P fusion protein (human C888P fused to Mycobacterium tuberculosis Ra12); assay: ELISA, RC888P on plate, serum 1:4000, well 1
[6] = target: Ra12-C888P fusion protein (human C888P fused to Mycobacterium tuberculosis Ra12); assay: ELISA, RC888P on plate, serum 1:4000, well 2
[7] = target: Ra12-C888P fusion protein (human C888P fused to Mycobacterium tuberculosis Ra12); assay: ELISA, RC888P on plate, serum 1:8000, well 1
[8] = target: Ra12-C888P fusion protein (human C888P fused to Mycobacterium tuberculosis Ra12); assay: ELISA, RC888P on plate, serum 1:8000, well 2
[9] = target: Ra12-C888P fusion protein (human C888P fused to Mycobacterium tuberculosis Ra12); assay: ELISA, RC888P on plate, serum 1:16000, well 1
[10] = target: Ra12-C888P fusion protein (human C888P fused to Mycobacterium tuberculosis Ra12); assay: ELISA, RC888P on plate, serum 1:16000, well 2
[11] = target: Ra12-C888P fusion protein (human C888P fused to Mycobacterium tuberculosis Ra12); assay: ELISA, RC888P on plate, serum 1:32000, well 1
[12] = target: Ra12-C888P fusion protein (human C888P fused to Mycobacterium tuberculosis Ra12); assay: ELISA, RC888P on plate, serum 1:32000, well 2
[13] = target: Ra12-C888P fusion protein (human C888P fused to Mycobacterium tuberculosis Ra12); assay: ELISA, RC888P on plate, serum 1:64000, well 1
[14] = target: Ra12-C888P fusion protein (human C888P fused to Mycobacterium tuberculosis Ra12); assay: ELISA, RC888P on plate, serum 1:64000, well 2
[15] = target: Ra12-C888P fusion protein (human C888P fused to Mycobacterium tuberculosis Ra12); assay: ELISA, RC888P on plate, serum 1:128000, well 1
[16] = target: Ra12-C888P fusion protein (human C888P fused to Mycobacterium tuberculosis Ra12); assay: ELISA, RC888P on plate, serum 1:128000, well 2
[17] = target: Ra12-C888P fusion protein (human C888P fused to Mycobacterium tuberculosis Ra12); assay: ELISA, RC888P on plate, serum 1:256000, well 1
[18] = target: Ra12-C888P fusion protein (human C888P fused to Mycobacterium tuberculosis Ra12); assay: ELISA, RC888P on plate, serum 1:256000, well 2
[19] = target: Ra12-C888P fusion protein (human C888P fused to Mycobacterium tuberculosis Ra12); assay: ELISA, RC888P on plate, serum 1:512000, well 1
[20] = target: Ra12-C888P fusion protein (human C888P fused to Mycobacterium tuberculosis Ra12); assay: ELISA, RC888P on plate, serum 1:512000, well 2
[21] = target: Ra12-C888P fusion protein (human C888P fused to Mycobacterium tuberculosis Ra12); assay: ELISA, RC888P on plate, serum 1:1024000, well 1
[22] = target: Ra12-C888P fusion protein (human C888P fused to Mycobacterium tuberculosis Ra12); assay: ELISA, RC888P on plate, serum 1:1024000, well 2
[23] = target: Ra12-C888P fusion protein (human C888P fused to Mycobacterium tuberculosis Ra12); assay: ELISA, RC888P on plate, serum 1:1000, average of 2 wells
[24] = target: Ra12-C888P fusion protein (human C888P fused to Mycobacterium tuberculosis Ra12); assay: ELISA, RC888P on plate, serum 1:2000, average of 2 wells
[25] = target: Ra12-C888P fusion protein (human C888P fused to Mycobacterium tuberculosis Ra12); assay: ELISA, RC888P on plate, serum 1:4000, average of 2 wells
[26] = target: Ra12-C888P fusion protein (human C888P fused to Mycobacterium tuberculosis Ra12); assay: ELISA, RC888P on plate, serum 1:8000, average of 2 wells
[27] = target: Ra12-C888P fusion protein (human C888P fused to Mycobacterium tuberculosis Ra12); assay: ELISA, RC888P on plate, serum 1:16000, average of 2 wells
[28] = target: Ra12-C888P fusion protein (human C888P fused to Mycobacterium tuberculosis Ra12); assay: ELISA, RC888P on plate, serum 1:32000, average of 2 wells
[29] = target: Ra12-C888P fusion protein (human C888P fused to Mycobacterium tuberculosis Ra12); assay: ELISA, RC888P on plate, serum 1:64000, average of 2 wells
[30] = target: Ra12-C888P fusion protein (human C888P fused to Mycobacterium tuberculosis Ra12); assay: ELISA, RC888P on plate, serum 1:128000, average of 2 wells
[31] = target: Ra12-C888P fusion protein (human C888P fused to Mycobacterium tuberculosis Ra12); assay: ELISA, RC888P on plate, serum 1:256000, average of 2 wells
[32] = target: Ra12-C888P fusion protein (human C888P fused to Mycobacterium tuberculosis Ra12); assay: ELISA, RC888P on plate, serum 1:512000, average of 2 wells
[33] = target: Ra12-C888P fusion protein (human C888P fused to Mycobacterium tuberculosis Ra12); assay: ELISA, RC888P on plate, serum 1:1024000, average of 2 wells

## Preimmune sera (antibody)
[1]
  ELISA absorbance at 450 nm: 0.09 OD450
[2]
  ELISA absorbance at 450 nm: 0.06 OD450
[3]
  ELISA absorbance at 450 nm: 0.06 OD450
[4]
  ELISA absorbance at 450 nm: 0.05 OD450
[5]
  ELISA absorbance at 450 nm: 0.06 OD450
[6]
  ELISA absorbance at 450 nm: 0.05 OD450
[7]
  ELISA absorbance at 450 nm: 0.06 OD450
[8]
  ELISA absorbance at 450 nm: 0.06 OD450
[9]
  ELISA absorbance at 450 nm: 0.06 OD450
[10]
  ELISA absorbance at 450 nm: 0.05 OD450
[11]
  ELISA absorbance at 450 nm: 0.06 OD450
[12]
  ELISA absorbance at 450 nm: 0.05 OD450
[13]
  ELISA absorbance at 450 nm: 0.06 OD450
[14]
  ELISA absorbance at 450 nm: 0.05 OD450
[15]
  ELISA absorbance at 450 nm: 0.06 OD450
[16]
  ELISA absorbance at 450 nm: 0.06 OD450
[17]
  ELISA absorbance at 450 nm: 0.06 OD450
[18]
  ELISA absorbance at 450 nm: 0.06 OD450
[19]
  ELISA absorbance at 450 nm: 0.06 OD450
[20]
  ELISA absorbance at 450 nm: 0.05 OD450
[21]
  ELISA absorbance at 450 nm: 0.06 OD450
[22]
  ELISA absorbance at 450 nm: 0.06 OD450
[23]
  ELISA absorbance at 450 nm: 0.07 OD450
[24]
  ELISA absorbance at 450 nm: 0.06 OD450
[25]
  ELISA absorbance at 450 nm: 0.06 OD450
[26]
  ELISA absorbance at 450 nm: 0.06 OD450
[27]
  ELISA absorbance at 450 nm: 0.06 OD450
[28]
  ELISA absorbance at 450 nm: 0.06 OD450
[29]
  ELISA absorbance at 450 nm: 0.06 OD450
[30]
  ELISA absorbance at 450 nm: 0.06 OD450
[31]
  ELISA absorbance at 450 nm: 0.06 OD450
[32]
  ELISA absorbance at 450 nm: 0.06 OD450
[33]
  ELISA absorbance at 450 nm: 0.06 OD450
